Results: the supplement of paper PMC7125110
± gives the standard error. Fewer inactive variants are shown than the library holds.

B1: glmS ribozyme (parent)
chain: AUAAAAGCGCCAGAACUACAGAAAUGUAGUUGACGAGGAGGAGGUUUAUCGAAUUUUCGGCGGAUGCCUCCAAA

Key:
Settings in all cases: with glucosamine-6-phosphate
glucosamine-6-phosphate [1] = variants of: B1; experiment: self-cleavage kobs at 40 uM GlcN6P; higher = faster cleavage; RNA array
Procedure, shortened: (§1)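 Barcoded glmS ribozyme variants on sequenced MiSeq chips were transcribed in situ by E. coli RNA polymerase and tracked through a hybridised Cy3 probe at 37 °C. Glucosamine-6-phosphate (40 μM to 10 mM) in HEPES/KCl/Mg(OAc)2 buffer was flowed in, and tiles were imaged over ~14 h. Signals were normalised to baseline and to non-cleaving reference variants; per-tile medians were fit to one- or two-exponential decays to give kobs. kcat and KM came from weighted Michaelis–Menten fits across concentrations.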

glucosamine-6-phosphate [2] = variants of: B1; experiment: self-cleavage kobs at 640 uM GlcN6P; higher = faster cleavage; RNA array
Procedure, shortened: as §1

glucosamine-6-phosphate [3] = variants of: B1; experiment: self-cleavage kobs at 2500 uM GlcN6P; higher = faster cleavage; RNA array
Procedure, shortened: as §1

glucosamine-6-phosphate [4] = variants of: B1; experiment: self-cleavage kobs at 10000 uM GlcN6P; higher = faster cleavage; RNA array
Procedure, shortened: as §1

glucosamine-6-phosphate [5] = variants of: B1; experiment: self-cleavage kobs at 160 uM GlcN6P; higher = faster cleavage; RNA array
Procedure, shortened: as §1

Row | Variant | self-cleavage kobs at 40 uM GlcN6P (glucosamine-6-phosphate [1]) [s⁻¹] | self-cleavage kobs at 640 uM GlcN6P (glucosamine-6-phosphate [2]) [s⁻¹] | self-cleavage kobs at 2500 uM GlcN6P (glucosamine-6-phosphate [3]) [s⁻¹] | self-cleavage kobs at 10000 uM GlcN6P (glucosamine-6-phosphate [4]) [s⁻¹] | self-cleavage kobs at 160 uM GlcN6P (glucosamine-6-phosphate [5]) [s⁻¹]
1 | G41U G43A | < 1e-05 | < 1e-05 | < 1e-05 | < 1e-05 | 
2 | U45G G59C | < 1e-05 | < 1e-05 | < 1e-05 |  | < 1e-05
3 | G44A U47C | < 1e-05 | < 1e-05 | < 1e-05 | < 1e-05 | < 1e-05
4 | U45G A52C U55C C71U | < 1e-05 |  |  |  | 
5 | G40U G51U G62A C68U | < 1e-05 |  |  | < 1e-05 | 
6 | A42G G66A | 0.000416 ± 6.5e-05 | 0.00611 ± 0.00079 | 0.00984 ± 0.0018 | 0.0267 ± 0.0068 | 0.000862 ± 0.0002
7 | G41A C68G | < 1e-05 | < 1e-05 | < 1e-05 | < 1e-05 | < 1e-05
8 | G43A A64G | < 1e-05 |  |  | 4.35e-05 ± 1.7e-05 | < 1e-05
9 | A42C G51A C61U | < 1e-05 |  |  | < 1e-05 | < 1e-05
10 | G41C A64C | < 1e-05 | < 1e-05 | < 1e-05 |  | < 1e-05
11 | A42C C50U U69A | < 1e-05 |  |  | < 1e-05 | 
12 | G44A A48G | < 1e-05 | < 1e-05 | < 1e-05 | < 1e-05 | < 1e-05
13 | A42C G44A | < 1e-05 | < 1e-05 |  | < 1e-05 | < 1e-05
14 | A42G G63A U69G | < 1e-05 |  |  | < 1e-05 | 
15 | G44C U45C | < 1e-05 |  |  |  | < 1e-05
16 | G40U G59U U69C C71U | < 1e-05 |  | < 1e-05 |  | 
17 | G44C G62C | < 1e-05 | < 1e-05 | < 1e-05 | < 1e-05 | < 1e-05
18 | G44C G62A | < 1e-05 | < 1e-05 | < 1e-05 | < 1e-05 | < 1e-05
19 | G43C A52C U54G | < 1e-05 | < 1e-05 |  | < 1e-05 | 
20 | G41C G59A | < 1e-05 | < 1e-05 |  |  | 
21 | G44U A52U G62C | < 1e-05 |  | < 1e-05 |  | < 1e-05

Row | Variant | self-cleavage kobs at 40 uM GlcN6P (glucosamine-6-phosphate [1]) [s⁻¹] | self-cleavage kobs at 640 uM GlcN6P (glucosamine-6-phosphate [2]) [s⁻¹] | self-cleavage kobs at 2500 uM GlcN6P (glucosamine-6-phosphate [3]) [s⁻¹] | self-cleavage kobs at 10000 uM GlcN6P (glucosamine-6-phosphate [4]) [s⁻¹] | self-cleavage kobs at 160 uM GlcN6P (glucosamine-6-phosphate [5]) [s⁻¹]
22 | U45A A48C C58U | < 1e-05 |  |  | < 1e-05 | 
23 | G43U G63C | < 1e-05 | < 1e-05 | < 1e-05 |  | < 1e-05
24 | G43U G63U | < 1e-05 |  | < 1e-05 | < 1e-05 | < 1e-05
25 | G44A U69G | < 1e-05 | < 1e-05 | < 1e-05 | < 1e-05 | 
26 | G44A U69A | < 1e-05 | < 1e-05 | < 1e-05 | < 1e-05 | < 1e-05
27 | A42G G43C | < 1e-05 | < 1e-05 |  | < 1e-05 | 
28 | G43A G51C U54C C71U | < 1e-05 | < 1e-05 | < 1e-05 |  | 
29 | G44C C58U | < 1e-05 | < 1e-05 | < 1e-05 | < 1e-05 | < 1e-05
30 | A42C A53U | < 1e-05 | < 1e-05 |  |  | < 1e-05
31 | G44A C68G | < 1e-05 | < 1e-05 | < 1e-05 | < 1e-05 | < 1e-05
32 | A42U U65A | < 1e-05 |  |  | 4.89e-05 ± 1.2e-05 | < 1e-05
33 | A42U U65C | < 1e-05 | < 1e-05 | < 1e-05 | < 1e-05 | < 1e-05
34 | G43U C58G | < 1e-05 | < 1e-05 | < 1e-05 | < 1e-05 | < 1e-05
35 | G43U C58U | < 1e-05 | < 1e-05 |  | < 1e-05 | < 1e-05
36 | A42G A52U C70A | < 1e-05 |  |  |  | < 1e-05
37 | A42C C68G | < 1e-05 | < 1e-05 |  |  | < 1e-05
38 | G44C C67U C68U | < 1e-05 |  |  |  | < 1e-05
39 | G44A G63U | < 1e-05 | < 1e-05 | < 1e-05 | < 1e-05 | < 1e-05
40 | G44A G63C | < 1e-05 | < 1e-05 | < 1e-05 | < 1e-05 | 
41 | G41U G66C C68U | < 1e-05 | < 1e-05 | < 1e-05 |  | < 1e-05
42 | G41A G43C U49A C50G C58A | < 1e-05 |  |  |  | 

Row | Variant | self-cleavage kobs at 40 uM GlcN6P (glucosamine-6-phosphate [1]) [s⁻¹] | self-cleavage kobs at 640 uM GlcN6P (glucosamine-6-phosphate [2]) [s⁻¹] | self-cleavage kobs at 2500 uM GlcN6P (glucosamine-6-phosphate [3]) [s⁻¹] | self-cleavage kobs at 10000 uM GlcN6P (glucosamine-6-phosphate [4]) [s⁻¹] | self-cleavage kobs at 160 uM GlcN6P (glucosamine-6-phosphate [5]) [s⁻¹]
43 | G44C A52U | < 1e-05 |  |  |  | 
44 | G44C U45G C58G | < 1e-05 |  |  |  | 
45 | G43C G63U | < 1e-05 | < 1e-05 | < 1e-05 |  | < 1e-05
46 | G41U A48U C68A | < 1e-05 |  | < 1e-05 |  | 
47 | G41C C67G | < 1e-05 | < 1e-05 | < 1e-05 | < 1e-05 | < 1e-05
48 | G41C C58A | < 1e-05 |  |  | < 1e-05 | < 1e-05
49 | U45C G63U | < 1e-05 | < 1e-05 | < 1e-05 | < 1e-05 | < 1e-05
50 | G41A G43U A53G C71G | < 1e-05 |  | < 1e-05 |  | 
51 | A42C G66C | < 1e-05 | < 1e-05 | < 1e-05 | < 1e-05 | < 1e-05
52 | G43U C50U | < 1e-05 | < 1e-05 | < 1e-05 | < 1e-05 | < 1e-05
53 | G40U C67U C70A | < 1e-05 |  |  |  | 
54 | A42C U49A G63C | < 1e-05 |  |  |  | 
55 | G41U G63C C70A | < 1e-05 |  |  |  | 
56 | G44C U65C | < 1e-05 | < 1e-05 |  | < 1e-05 | < 1e-05
57 | G44A C67U | 0.000707 ± 7e-05 | 0.00449 ± 0.0011 | 0.006 ± 0.0018 | 0.0388 ± 0.0061 | 0.00265 ± 0.00064
58 | G44C U46A G51A | < 1e-05 |  |  |  | 
59 | G41C G43C | < 1e-05 | < 1e-05 |  | < 1e-05 | < 1e-05
60 | G41C C58U G59C | < 1e-05 |  |  |  | 
61 | G43U A64U | < 1e-05 | < 1e-05 | < 1e-05 | < 1e-05 | 
62 | G40U G44A | < 1e-05 |  |  | < 1e-05 | < 1e-05
63 | G40C G41C G63U | < 1e-05 |  |  |  | 

Row | Variant | self-cleavage kobs at 40 uM GlcN6P (glucosamine-6-phosphate [1]) [s⁻¹] | self-cleavage kobs at 640 uM GlcN6P (glucosamine-6-phosphate [2]) [s⁻¹] | self-cleavage kobs at 2500 uM GlcN6P (glucosamine-6-phosphate [3]) [s⁻¹] | self-cleavage kobs at 10000 uM GlcN6P (glucosamine-6-phosphate [4]) [s⁻¹] | self-cleavage kobs at 160 uM GlcN6P (glucosamine-6-phosphate [5]) [s⁻¹]
64 | G44C G51A | < 1e-05 | < 1e-05 | < 1e-05 | < 1e-05 | < 1e-05
65 | A42U A53G U56C C71U | < 1e-05 |  |  |  | 
66 | G40U A64U | < 1e-05 |  |  |  | < 1e-05
67 | G43A G66U | < 1e-05 |  | < 1e-05 |  | 
68 | A42G U45A U49C | < 1e-05 |  |  |  | 
69 | G44U C50G A53U G59A C68A | < 1e-05 |  |  |  | 
70 | U45A C61A | < 1e-05 | < 1e-05 | < 1e-05 | < 1e-05 | 
71 | U45C C50G | < 1e-05 | < 1e-05 | < 1e-05 | < 1e-05 | < 1e-05
72 | A42G U57A G66U | < 1e-05 |  |  |  | 
73 | G41U U49A | < 1e-05 | < 1e-05 |  | < 1e-05 | 
74 | G41U C61G | < 1e-05 | < 1e-05 | < 1e-05 | < 1e-05 | < 1e-05
75 | A42C U65C | < 1e-05 | < 1e-05 | < 1e-05 | < 1e-05 | < 1e-05
76 | G40U A48G G59U | < 1e-05 |  | < 1e-05 | < 1e-05 | < 1e-05
77 | G40C U47A C61U | < 1e-05 |  |  |  | 
78 | G44U G51C | < 1e-05 | < 1e-05 | < 1e-05 | < 1e-05 | < 1e-05
79 | G40U G59C G60U C70G | < 1e-05 |  |  | < 1e-05 | 
80 | A42U G60A | < 1e-05 |  |  | < 1e-05 | < 1e-05
81 | G41U G60U U69C | < 1e-05 |  |  | < 1e-05 | 
82 | G44C G60C | < 1e-05 | < 1e-05 |  | < 1e-05 | < 1e-05
83 | A42G C61G | < 1e-05 | < 1e-05 |  | < 1e-05 | < 1e-05
84 | G44U C58U C71U | < 1e-05 | < 1e-05 | < 1e-05 | < 1e-05 | 
